The DeepSol protein solubility set

experiment: soluble on expression in E. coli; label from the status in PepcDB or PDB records

| Sequence | soluble on expression in E. coli |
| --- | --- |
| MGSDKIHHHHHHMLNKVLTHLDENIEKSLERLFSLLRFQSISTDFAYKDECRKAADWLVEDLKSIGFKASRRDTSGHPMVVGHHPGPSDDCLHVLFYGHYDVQPVDPLNLWEDDPFTPSLKEREGEKVICARGASDDKGQLMTFIEACRAFKKETGQLPVRVTVLFEGEEESGSSSLVPFLKANKDELKADCALVCDTSMWDADTPSVSVALRGILGEEIIITAANRDLHSGYFGGAAANPIRILTKVLAGLHDENNRVTLPGFYDGVEETPPHILQSWNALNCTAENFLGPIGLSLPAGEKGRSVLELVWARPTAEINGISGGYEGEGIKTVIASQASAKVSFRLVHKQDPEKIRQAFRDYVCSLIPADCSVVFKEHGASPAIQLPYDSPFIKTAKDALSQEWNNPALLTVMGGSIPIVADFQSILDMETLLVGFALADDRIHSPNEKYNLKSFHKGQRSWARILATLAKTGG | not soluble |
| MASKPEKRVASSVFITLAPPRRDV | soluble |
| MNILGIETSCDETSAAVLSDGSVRSNIVSSQRCHTDFGGVVPELASREHERLIVSIVDAAITEANIAKNDLDVIAATAGPGLIGAVMVGLCFAEGLAWALGKPFVPVNHVEAHIFSPFISDEPGHREPKGDFVSLTVSGGHTLLSVVRQDLGYEVIGRTIDDAAGEAFDKTGKMLGLGYPAGPVIDRLAREGDSDFHRFPRALTASSQTSKSYRGNFDFSFSGLKTSVRTWLEAHDSEYVQKHQADLAASIQSAIVEVLVEKSVAAALLHKVNAISVAGGVSANSGLRSAMQAACDRHGIELFIPALAYSTDNAAMIATMAQLMIARGKYRIEDNSYGVAPFARFEAARKGAR | not soluble |
| MGSSHHHHHHSSGLVPRGSAVPLCKQALEDLEKTSGHDHPDVATMLNILALVYRDQNKYKEAAHLLNDALAIREKTLGKDHPAVAATLNNLAVLYGKRGKYKEAEPLCKRALEIREKVLGKFHPDVAKQLSNLALLCQNQGKAEEVEYYYRRALEIYATRLGPDDPNVAKTKNNLASCYLKQGKYQDAETLYKEILTRAHEKEFGSVNGDNKPIWMHAEEREESKDKRRDSAPYGEYGSWYKACKVDSPTVNTTLRSLGALYRRQGKLEAAHTLEDCASRNRK | soluble |
| MATAEVLNIGKKLYEGKTKEVYELLDSPGKVLLQSKDQITAGNAARKNHLEGKAAISNKITSCIFQLLQEAGIKTAFTRKCGETAFIAPQCEMIPIEWVCRRIATGSFLKRNPGVKEGYKFYPPKVELFFKDDANNDPQWSEEQLIAAKFCFAGLLIGQTEVDIMSHATQAIFEILEKSWLPQNCTLVDMKIEFGVDVTTKEIVLADVIDNDSWRLWPSGDRSQQKDKQSYRDLKEVTPEGLQMVKKNFEWVAERVELLLKSESQCRVVVLMGSTSDLGHCEKIKKACGNFGIPCELRVTSAHKGPDETLRIKAEYEGDGIPTVFVAVAGRSNGLGPVMSGNTAYPVISCPPLTPDWGVQDVWSSLRLPSGLGCSTVLSPEGSAQFAAQIFGLSNHLVWSKLRASILNTWISLKQADKKIRECNL | soluble |
| MAHHHHHHMSAPKEGNRGESKEKFWLYAFRDHLANLRAFSNCIETADVNGVGDYQLLVADGSKRIKVYAGTSLQRELPLFGVPSAITSFFMDDADAFGKPVVAVATGPYIFMYRSNKPLYRFMVPPVPLNPQESAIWQDLATEALTVEEAVKQLESLLDSGVETSSRTLELLLETPEERGEFVSRLRSVPLIQMDVVCCLTSIPLNSLDEGGRSVLVIGTEAGFLYVLKHNAAEVALKVVLPRTPVFLIAAGCFEVDYRMVVACRDGRVYSIKQGNLQNAVIQPDAQPCAIARYNNLIAVATTANTLAYYNLKGKKQQSVFLPCSISGLSTINDTVTGEARGLVVALSNGEIRVYVGTQLHHVSLAYGTVTAMKFGRYGRSDGALVLVLQNGSLVVELLHRGVNLSCSKTVETGPPPQQDIPIPIPHLSSVFATQSSRERKHGVEMYQLFQYDLSQLRLTTAKAYLDMIANGSVPSELGNVTQENEGVAEPSLRLNAVVQGLGPVFKVKVQLQNVGEAPLHAVRVVFCLSEDNVYCMPQQIFLIPTLLPSVPLSCAAFVTTSEGEAKGNAILVVATGPKSRTPLARTLVDLPEVEAMAEV | not soluble |
| MGSDKIHHHHHHMVKTNVTIMRGGTSKGVFFHESAMPNNKNEWEPFLLDVMGSPDKRQIDGLGGGNSLTSKVAIIKKAYTSDIDVHYTFGQVSISEEKVDFKGNCGNISAAVGPFAIEEGLVKAKEPMTAVRILNTNTNKMIIAEVEVEDGQVKYDGDVTISGVPGSGSPIYLNFHDAAGSVTGHLLPTGNSSEFLDTSQGQIEVSIIDYANPLVFVEASSIGLDGTELAEEFTDLQLAQFEELRSIAAEKCGFASRFSATKLSPAVPKLAIVAKPEKYKDSTGAWHSSVEMDLHIRMMSMQKSHQALAVTGAICTTRALSVEGAIPARIAKNHSTKVRLAHSSGIIETMVEPTGIKIVRTARRIMDGTVYTHGDYQMM | not soluble |
